According to patent publication US20190298770A1 (IOVANCE BIOTHERAPEUTICS, published 2019):

How the values were obtained:
[1] = target: T1, Programmed Death 1 Ligand 1 (PD-L1) (human, UniProt Q9NZQ7 19-290); experiment: flow cytometry of 293-PD-L1 stained with 10 fold concentrated supernatant of TIL line M1015, Alexa 647 anti-human Fcγ [panel C]
T1 construct: also called CD274; B7-H1

[2] = target: T1, Programmed Death 1 Ligand 1 (PD-L1); experiment: flow cytometry on EL4 PD-L1 cells, goat anti-human FITC, % of PD-L1 positive cells

T1 sequence (Q9NZQ7 19-290): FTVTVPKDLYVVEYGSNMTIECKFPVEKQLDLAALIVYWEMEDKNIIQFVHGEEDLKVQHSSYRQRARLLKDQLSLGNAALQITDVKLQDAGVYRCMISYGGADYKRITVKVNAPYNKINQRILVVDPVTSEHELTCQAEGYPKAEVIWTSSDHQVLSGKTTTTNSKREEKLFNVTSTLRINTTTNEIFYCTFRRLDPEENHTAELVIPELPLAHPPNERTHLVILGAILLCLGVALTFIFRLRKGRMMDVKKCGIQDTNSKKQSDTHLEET

Molecule	% of cells in the upper left (PDL1 positive) quadrant [1] [%]	binding result [2]
FMC63-scFV-Fc (Fc fusion)	1.02	–
anti-PD-L1 ScFV clone 19H9 (scFv, also called 19H9-scFV; scFV 19H9) scFv: QVQLQESGGGLVKPGGSLRLSCAASGFTFSSYSMNWVRQAPGKGLEWVSGINTAGDTHYPESVKGRFTISRDNARNSLNLQMNSLRAEDTAVYYCVRERVEREYSGYDAFDIWGQGTTVTVSAGGGGSGGGGSGGGGSGAPNFMLTQPHSVSESLGKTVTISCTGSSGSIARKFVQWYQQRPGSSPTTVIYENNQRPSGVSDRFSGSIGSSSNSASLTISGLKTEDEADYYCQSYDSSNVVFGGGTKVTVL	–	binds
anti-PD-L1 ScFV clone 38A1 (scFv, also called 38A1-scFV; scFV 38A1) scFv: EVQLVESGGGLVQPGGSLRLSCAASGFTFSNYAMSWVRQAPGKGLEWVSTISGSGGTTYYADSVKGRFTISRDNSKNTLYLQMNSLRVEDTAVYYCAKDWFRSSSPDAFDIWGQGTTVTVSAGGGGSGGGGSGGGGSGAPSYVLTQPPSVSVAPGQTARITCGGNNIGRKIVHWYQQRPGQAPVLVIYYDTDRPAGIPERFSGSNSGNMATLTISTVGAGDEADYYCQVWDTGSDHVVFGGGTKLTVL	–	binds
